Data as given in US5536648, “Amplified DNA assay using a double stranded DNA binding protein” (Amrad Corporation Limited).

B1: HIV p24 c-d1 (figure: d2) PCR product with GCN4 site (primer d1 shown) (dsDNA)
DNA 1: AGCGGATGACTCATTTTTTTTTCCTTGTCTTATGTCCAGAA
DNA 2: TTCTGGACATAAGACAAGGAAAAAAAAATGAGTCATCCGCT
B2: HIV p24 c-d PCR product with GCN4 site (primer d shown) (dsDNA)
DNA 1: AAGTGACTCAAGTGACTCAATCCTTGTCTTATGTCCAGAA
DNA 2: TTCTGGACATAAGACAAGGATTGAGTCACTTGAGTCACTT

Assays:
[1] = target: T1, GST-GCN4 6.8 (full-length GCN4, 281 aa) (Saccharomyces cerevisiae, UniProt P03069 P03069:1-281); assay: microtitre plate capture; binds with 1 ug/ml carrier human DNA; oligo called d2 in results, d1 in methods; conditions: tags: N-terminal GST (Schistosoma japonicum), pGEX-2T, E. coli; chain copies: 2
T1 sequence (P03069 whole entry, one chain of several): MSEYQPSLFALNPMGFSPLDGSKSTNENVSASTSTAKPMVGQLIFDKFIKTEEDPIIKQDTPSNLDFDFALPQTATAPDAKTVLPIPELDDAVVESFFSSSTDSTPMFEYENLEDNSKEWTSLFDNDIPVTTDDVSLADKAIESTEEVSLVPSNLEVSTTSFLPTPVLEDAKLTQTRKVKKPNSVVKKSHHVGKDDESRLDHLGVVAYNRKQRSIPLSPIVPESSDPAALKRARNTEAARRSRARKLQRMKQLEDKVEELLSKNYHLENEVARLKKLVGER

[2] = target: T1, GST-GCN4 6.8 (full-length GCN4, 281 aa); assay: microtitre plate capture, MTPBS-Tween, 20 C; binds with 1 ug/ml carrier human DNA; conditions: tags: N-terminal GST (Schistosoma japonicum), pGEX-2T, E. coli; chain copies: 2

Binder | binding result [1] | binding result [2]
B1 | binds | 
B2 |  | binds
